Source: US20240376639A1 (ELASMOGEN, published 2024)

How the values were obtained:
[1] = target: T1, Human Serum Albumin (human, UniProt P02768 25-609); assay: monoclonal phage ELISA, HSA as control antigen, OD450
T1 construct: Non-target control antigen in the ELISAs; also called HSA

[2] = target: T2, human DLL4 (human, UniProt Q9NR61 27-524, limits assumed); assay: monoclonal phage ELISA on hDLL4, with HSA as control antigen, OD450
T2 construct: Antigen of the monoclonal phage ELISA; also called hDLL4

[3] = target: hDLL4-Fc (human, UniProt Q9NR61 27-524, limits assumed); assay: direct binding ELISA on 1 µg/mL coated hDLL4-Fc, protein input unquantified, detection with anti-poly-histidine-HRP
[4] = target: T3, human ROR1 (human, UniProt Q01973 30-403, limits assumed); assay: BIAcore (SPR)
T3 construct: The general ELISA protocol coats hROR1-Fc; also called hROR1; huROR1

[5] = target: T3, human ROR1; assay: BLI against hROR1
[6] = target: T3, human ROR1; assay: kinetics against hROR1; method not named in the table (kdis heading as in the BLI table)

T2 sequence (Q9NR61 27-524 limits assumed): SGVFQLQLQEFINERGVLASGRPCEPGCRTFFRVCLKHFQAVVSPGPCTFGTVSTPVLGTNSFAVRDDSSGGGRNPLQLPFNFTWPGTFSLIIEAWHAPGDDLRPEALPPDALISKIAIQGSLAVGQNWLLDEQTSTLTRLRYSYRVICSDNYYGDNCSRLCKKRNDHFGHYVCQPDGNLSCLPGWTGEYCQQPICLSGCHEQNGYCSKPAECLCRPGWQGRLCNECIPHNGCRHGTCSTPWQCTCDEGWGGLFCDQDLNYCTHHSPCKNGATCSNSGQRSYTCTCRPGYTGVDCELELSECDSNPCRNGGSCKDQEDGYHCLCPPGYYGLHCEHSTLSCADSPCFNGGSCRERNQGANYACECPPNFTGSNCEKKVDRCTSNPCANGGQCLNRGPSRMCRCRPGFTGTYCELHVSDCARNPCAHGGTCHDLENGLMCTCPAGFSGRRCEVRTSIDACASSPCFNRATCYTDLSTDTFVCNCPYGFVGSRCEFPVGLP
hDLL4-Fc, sequence (Q9NR61 27-524 limits assumed): as above
T3 sequence (Q01973 30-403 limits assumed): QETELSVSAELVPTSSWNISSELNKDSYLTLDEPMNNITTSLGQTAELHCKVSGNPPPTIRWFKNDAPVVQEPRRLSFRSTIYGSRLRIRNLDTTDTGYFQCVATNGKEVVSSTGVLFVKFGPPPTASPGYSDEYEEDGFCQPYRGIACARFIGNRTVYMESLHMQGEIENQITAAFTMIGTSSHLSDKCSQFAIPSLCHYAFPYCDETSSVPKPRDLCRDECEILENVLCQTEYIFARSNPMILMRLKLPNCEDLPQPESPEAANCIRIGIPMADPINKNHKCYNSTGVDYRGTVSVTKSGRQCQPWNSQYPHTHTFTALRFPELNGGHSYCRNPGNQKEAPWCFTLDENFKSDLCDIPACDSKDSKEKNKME

Binder | binding result [1] | binding result [2] | other results
E4 WT (VNAR, also called pre-humanised parental clone E4 WT; Wt DLL4 VNAR) VNAR: ASVNQTPRTATKETGESLTINCVLTDTKYLYSTSWFRKNPGTTDWERMSIGGRYVESVNKGAKSFSLRIKDLTVADSATYICRAWTSFEEQVKDVYGAGTVLTVN | no binding | binds | binding result [3]: binds
78WT (VNAR, Parental non-humanised VNAR 78; also called native (WT) anti-DLL4 VNAR 78) VNAR: TRVDQTPRTATKETGESLTINCVLTDTNYSLYATSWFRKNPGTTDWERMSIGGRYVESVNKGAKSFSLRIKDLTVADSATYICRAVWFPYFISDMWDVYGAGTVLTVN | – | – | binding result [3]: binds
P3A1 WT dimer HisMyc (other, In the real molecule the two VNAR copies form one polypeptide, joined by an unprinted short peptide linker and carrying a HisMyc tag. They are given here as two separate chains because the linker letters are unknown., VNAR dimer in one chain; also called parental WT clone P3A1; WT non-humanised P3A1 clone; not shown: The short peptide linker joining the two P3A1 copies and the HisMyc tag) VNAR 1: TRVDQTPRTATKETGESLTINCVLTDTSYGLYSTSWFRKNPGTTDWERMSIGGRYVESVNKGAKSFSLRIKDLTVADSATYYCKAREARHPWLRQWYDGAGTVLTVN VNAR 2: TRVDQTPRTATKETGESLTINCVLTDTSYGLYSTSWFRKNPGTTDWERMSIGGRYVESVNKGAKSFSLRIKDLTVADSATYYCKAREARHPWLRQWYDGAGTVLTVN | – | – | Kd [4]: 0.302 nM
D3 V2 (VNAR, Humanised VNAR (soloMER)) VNAR: ASVNQSPSSLSASVGDRVTITCVLTDTSYGLYSTSWFRKNPGTTDWERMSIGGRYVESVNKRAKSFTLTISSLQPEDFATYYCKAQSGMAISTGSGHGYNWYDGAGTKVEIK | – | – | Kd [5]: 18.9 nM; kon [5]: 1.85e+06 M⁻¹ s⁻¹; Kd [6]: 15.6 nM; koff [6]: 0.0238 s⁻¹; kon [6]: 1.52e+06 M⁻¹ s⁻¹
D3 V4 (VNAR, Humanised VNAR (soloMER)) VNAR: ASVNQSPSSLSASVGDRVTITCVLTDTSYGLYSTSWYQQKPGTTDWERMSIGGRYVESVNKRAKSFTLTISSLQPEDFATYYCKAQSGMAISTGSGHGYNWYDGAGTKVEIK | – | – | Kd [5]: 58.5 nM; kon [5]: 1.38e+06 M⁻¹ s⁻¹
D3 V5 (VNAR, Humanised VNAR (soloMER)) VNAR: ASVNQSPSSLSASVGDRVTITCVLTDTSYGLYSTSWYQQKPGTTDWERMSIGGRFSGSGSKRAKSFTLTISSLQPEDFATYYCKAQSGMAISTGSGHGYNWYDGAGTKVEIK | – | – | Kd [5]: 36.2 nM
E4V2Ee8 (VNAR, Clone from the E4-V2 humanised library) VNAR: ASVNQSPSSLSASVGDRVTITCVLTGASYWYSTSWFRKNPGTTDEESMSNGGRYVESVNKRPMSFTLTISSLQPEDFATYYCRAWTSFEEQVKDVYGGGTKVEIK | no binding | binds | –
E4V2B9 (VNAR, Clone from the E4-V2 humanised library) VNAR: ASVNQSPSSLSASVGDRVTITCVLTGTGYWYSTSWFRKNPGTSNEDRIIIGGRYVESVNKGTKSFTLTISSLQPEDFATYYCRAWTSFEEQVKDVYGGGTKVEIK | – | binds | –
78-V3 (VNAR, Humanised VNAR (soloMER), poly-histidine tagged, expressed in E. coli; also called soloMER 78 variant V3) VNAR: TRVDQSPSSLSASVGDRVTITCVLTDTNYSLYATSWYQQKPGKTDWERMSIGGRYVESVNKGAKSFTLTISSLQPEDFATYYCRAVWFPYFISDMWDVYGGGTKVEIK | – | – | binding result [3]: binds
78-V4 (VNAR, Humanised VNAR (soloMER), poly-histidine tagged, expressed in E. coli; also called soloMER 78 variant V4) VNAR: TRVDQSPSSLSASVGDRVTITCVLTDTNYSLYATSWFRKNPGTTDWERMSIGGRFSGSGSKGAKSFTLTISSLQPEDFATYYCRAVWFPYFISDMWDVYGGGTKVEIK | – | – | binding result [3]: binds
78-V5 (VNAR, Humanised VNAR (soloMER), poly-histidine tagged, expressed in E. coli; also called soloMER 78 variant V5) VNAR: TRVDQSPSSLSASVGDRVTITCVLTDTNYSLYATSWYQQKPGKTDWERMSIGGRFSGSGSKGAKSFTLTISSLQPEDFATYYCRAVWFPYFISDMWDVYGGGTKVEIK | – | – | binding result [3]: binds
P3A1 V1 dimer HisMyc (other, In the real molecule the two VNAR copies form one polypeptide, joined by an unprinted short peptide linker and carrying a HisMyc tag. They are given here as two separate chains because the linker letters are unknown., 2x P3A1 V1 joined with a short peptide linker, with a HisMyc tag; expressed in bacteria; not shown: The short peptide linker joining the two P3A1 V1 copies and the HisMyc tag) VNAR 1: TRVDQSPSSLSASVGDRVTITCVLTDTSYGLYSTSWFRKNPGTTDWERMSIGGRYVESVNKGAKSFTLTISSLQPEDFATYYCKAREARHPWLRQWYDGAGTKVEIK VNAR 2: TRVDQSPSSLSASVGDRVTITCVLTDTSYGLYSTSWFRKNPGTTDWERMSIGGRYVESVNKGAKSFTLTISSLQPEDFATYYCKAREARHPWLRQWYDGAGTKVEIK | – | – | Kd [4]: 0.179 nM

Second part, led by results:

binding result [1] | binding result [2] | Binder | other results
no binding | binds | E4V2F3 (VNAR, Clone from the E4-V2 humanised library) VNAR: ASVNQSPSSLSASVGDRVTITCVLTDTNYWYSTSWFRKNPGTTNEDRIIISGRYVESVNNGPKSFTLTISSLQPEDFATYYCRAWTSFEEQVKDVYGGGTKVEIK | –
no binding | binds | E4V2Cc9 (VNAR, Clone from the E4-V2 humanised library) VNAR: ASVNQSPSSLSASVGDRVTITCVLTGTEYLYSTSWFRKNPGTPNEDRMINGGRYVESVNKGTMSFTLTISSLQPEDFATYYCRAWTSFEEQVKDVYGGGTKVEIK | –
no binding | binds | E4V2Gg11 (VNAR, Clone from the E4-V2 humanised library) VNAR: ASVNQSPSSLSASVGDRVTITCVLTGTRYWFSTSWFRKNPGTTDEDSISNGGRYVESVNNGSMSFTLTISSLQPEDFATYYCRAWTSFEEQVKDVYGGGTKVEIK | –
no binding | binds | E4V2Ee6 (VNAR, Clone from the E4-V2 humanised library) VNAR: ASVNQSPSSLSASVGDRVTITCVLTDTRYLYATSWFRKNPGTTNKESISNGGRYVESVNKRSMSFTLTISSLQPEDFATYYCRAWTSFEEQVKDVYGGGTKVEIK | –
no binding | binds | E4V2D10 (VNAR, Clone from the E4-V2 humanised library) VNAR: ASVNQSPSSLSASVGDRVTITCVLTGAGYWFATSWFRKNPGTSDKESISNSGRYVESVNKRSMSFTLTISSLQPEDFATYYCRAWTSFEEQVKDVYGGGTKVEIK | –
no binding | binds | E4V2Cc8 (VNAR, Clone from the E4-V2 humanised library) VNAR: ASVNQSPSSLSASVGDRVTITCVLTSAGYLYATSWFRKNPGTSDKESMIIGRRYVESVNNRSMSFTLTISSLQPEDFATYYCRAWTSFEEQVKDVYGGGTKVEIK | –
